Legend:
Experiment in all cases: double-antibody sandwich ELISA, R001 as detection antibody, against reference products of the different expression systems
[1] = target: E2.16 HPV16 VLPs (Human papillomavirus type 16) (UniProt P03101)
[2] = target: Y2.16 HPV16 VLPs (Human papillomavirus type 16) (UniProt P03101)
[3] = target: E1.16 HPV16 VLPs (Human papillomavirus type 16) (UniProt P03101)
[4] = target: I1.16 HPV16 VLPs (Human papillomavirus type 16) (UniProt P03101)
[5] = target: Y1.16 HPV16 VLPs (Human papillomavirus type 16) (UniProt P03101)

Measured: 抗原/蛋白比值

B1: HPV 16 R001 (antibody, V domains shown)
VH: QSVKESEGRLVTPGTPLTLTCTASGFTMSRYHMTWVRQAPGKGLEWIGIIYARNSDTYYANWAKGRFTISKTSTTVDLKITSPTIEDTATYFCARVDSDSSGAFDRLDLWGQGTLVTVSS
VL: DPMLTQTAASVEVAVGGTVTIKCQASQSIGGYLSWYQQKPGQRPKLLIYRASTLASGVPSRFKGSGSGTEYTLTFSGVECADAAAYYCQQGYTSSDINNAFGGGTEVVVK
1: [1] | [2] | [3] | [4] | [5]

Source: patent CN112125972A
